Source: patent publication US20110059095A1 (Regeneron, published 2011)
Where no end group is shown, it is not given here. The star is where a group is joined. Biotin = O=C1N[C@H]2[C@H](CS[C@H]2CCCCC(=O)*)N1

Key:
[1] = biological target: T1, full length human PAR-2 (human, UniProt P55085 26-397); assay: MSD cell binding
T1 construct: overexpressed on HEK293-derived 293/D9 cells; also called 293/D9/hPAR-2rec cells
Description: (§1) HEK293 cells were transfected with an NF-κB-luciferase-IRES-eGFP reporter plasmid. […] A clonal cell line, named D9, having low background levels of luciferase activity and high levels of eGFP when induced with IL-1β was made by a series of successive sorts of cell populations using flow cytometry. The 293/D9 cell line was then separately transfected with human PAR-2 or mouse PAR-2 to create the stable cell lines 293/D9/h PAR-2rec and 293/D9/m PAR-2rec, respectively.
(§2) Cells were plated on MSD high-bind 96 well plates at a density of 4×10⁴ cells/well in PBS and incubated for one hour at room temperature. Cells were then blocked in PBS with 2% BSA and incubated at room temperature for one hour. Anti-PAR-2 antibodies (ranging from 100 nM to 0.098 nM) were serially diluted two-fold in PBS with 0.5% BSA and incubated with the cells for one hour at room temperature followed by washing in PBS with 0.5% BSA. Sulfo-tagged anti-human IgG antibody (MSD) at a concentration of 0.1 μg/ml was then added to the cell/antibody mixture and incubated at room temperature for an additional hour. After another wash, a 1× non-surfactant containing read buffer was added and electro-chemiluminescent signal was read on the MSD Sector Imager. Signal of antibody binding to 293/D9 cells was subtracted from signal to 293/D9/hPAR-2rec or 293/D9/mPAR-2rec cells. Subtracted data were analyzed using a sigmoidal dose-response model in GraphPad Prism and EC₅₀ and Bₘₐₓ values were reported (Table 18). EC₅₀ values are defined as the antibody concentration required to achieve 50% maximal binding (Bₘₐₓ) to cells.

[2] = biological target: T2, full length mouse PAR-2 (mouse, UniProt P55086 26-399); assay: MSD cell binding
T2 construct: also called 293/D9/mPAR-2rec cells
T2 chain: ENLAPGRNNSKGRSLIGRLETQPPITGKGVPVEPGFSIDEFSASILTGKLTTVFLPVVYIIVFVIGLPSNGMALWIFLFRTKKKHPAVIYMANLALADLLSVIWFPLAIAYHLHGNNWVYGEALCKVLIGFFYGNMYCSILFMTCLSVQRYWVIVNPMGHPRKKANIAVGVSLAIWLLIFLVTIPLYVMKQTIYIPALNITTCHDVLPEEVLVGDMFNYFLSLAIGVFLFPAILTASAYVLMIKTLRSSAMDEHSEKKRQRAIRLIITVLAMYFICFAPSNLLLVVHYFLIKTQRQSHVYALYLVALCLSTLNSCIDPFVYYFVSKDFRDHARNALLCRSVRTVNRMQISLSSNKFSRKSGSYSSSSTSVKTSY
Description: as §1, §2

[3] = biological target: T3, Peptide C (human PAR-2), N-terminal biotinylated (Human); assay: SPR, peptide immobilized
T3 construct: also called Peptide C N-Term
T3 peptide: Biotin-GGGGSSLIGKV

[4] = biological target: T4, Peptide K (human PAR-1), unbiotinylated (Human); assay: SPR, antibody captured
T4 peptide: ATNATLDPRSFLLRNPND

[5] = biological target: T5, Peptide L (human PAR-3), unbiotinylated (Human); assay: SPR, antibody captured
T5 peptide: DTNNLAKPTLPIKTFRGA

[6] = biological target: T6, Peptide M (human PAR-4), unbiotinylated (Human); assay: SPR, antibody captured
T6 peptide: ESGSTGGGDDSTPSILPAP

[7] = biological target: T7, Peptide B (human PAR-2), unbiotinylated (Human); assay: SPR, antibody captured
T7 construct: also called Peptide B No Biotin
T7 peptide: SLIGKVDGTSHVTG
Description: Equilibrium dissociation constants (KD values) for antigen binding to selected purified PAR-2 antibodies were determined by surface kinetics using a real-time surface plasmon resonance biosensor assay. Antibody was captured on either a rabbit anti-mouse IgG polyclonal antibody (GE Healthcare, Piscataway, N.J.) surface or a goat anti-human IgG polyclonal antibody (Jackson Immuno Research Lab, West Grove, Pa.) surface created through direct amine chemical coupling to a BIACORE™ CM5 sensor chip to form a captured antibody surface. […] Antigen-antibody binding and dissociation were monitored in real time at room temperature. Kinetic analysis was performed to calculate KD and half-life of antigen/antibody complex dissociation (Table 10). For those antibodies where no T_{1/2} value is shown, steady state analysis was used to calculate the KD value. NB: no binding observed under current experimental conditions. ND: not determined.

[8] = biological target: T8, Peptide A (human PAR-2), C-terminal biotinylated (Human, C-terminal biotin via G4S linker); assay: SPR, peptide immobilized
T8 construct: also called Peptide A C-Term
Description: (§3) In another series of experiments, equilibrium dissociation constants (KD values) for purified antibody binding to selected biotinylated and unbiotinylated forms of PAR-2 peptides were determined by surface kinetics using a real-time surface plasmon resonance biosensor assay. Neutravidin (Pierce, Rockford, Ill.) was covalently coupled to the surface of a Biacore™ C1 chip or CM5 chip using amine coupling chemistry. Biotinylated (N-Term or C-Term) PAR-2 peptides (Peptides A and B) were immobilized on the surface via the high affinity binding interaction between biotin and the amine coupled Neutravidin.
(§4) In a first experiment using this format, varying concentrations (ranging from 5 to 100 μg/ml) of purified antibody were injected at a rate of 50 μl/min over a surface coated with immobilized peptide at low-density (<1RU) for 300 seconds. Antibody-peptide binding and dissociation was monitored in real time 25° C.

[9] = biological target: T9, Peptide B (human PAR-2), C-terminal biotinylated (Human, not fully specified); assay: SPR, peptide immobilized
T9 construct: also called Peptide B C-Term
T9 peptide: SLIGKVDGTSHVTGGGGGS-biotin
Description: as §3, §4

[10] = biological target: T10, Peptide A (human PAR-2), N-terminal biotinylated (Human, N-terminal biotin via G4S linker); assay: SPR, peptide immobilized
T10 construct: also called Peptide A N-Term
T10 peptide: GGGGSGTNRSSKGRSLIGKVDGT

[11] = biological target: T11, Peptide B (human PAR-2), N-terminal biotinylated (Human); assay: SPR, peptide immobilized
T11 construct: also called Peptide B N-Term
T11 peptide: Biotin-GGGGSSLIGKVDGTSHVTG

[12] = biological target: T12, Peptide E (mouse PAR-2), N-terminal biotinylated (Mouse (Mus musculus), N-terminal biotin via G4S linker); assay: SPR, peptide immobilized
T12 construct: also called Peptide E N-Term
T12 peptide: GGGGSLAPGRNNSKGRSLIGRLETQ

[13] = biological target: T13, Peptide G (rat PAR-2), N-terminal biotinylated (Rat (Rattus norvegicus), N-terminal biotin via G4S linker); assay: SPR, peptide immobilized
T13 construct: also called Peptide G N-Term
T13 peptide: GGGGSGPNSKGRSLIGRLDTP

[14] = biological target: T14, Peptide F (monkey PAR-2), N-terminal biotinylated (Monkey (Macaca mulatta), N-terminal biotin via G4S linker); assay: SPR, peptide immobilized; SPR, biotinylated peptide on the chip, bivalent antibody in solution
T14 construct: also called Peptide F N-Term
T14 sequence (peptide, as listed by the source): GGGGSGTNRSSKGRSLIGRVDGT

T1 sequence (P55085 26-397 G138A limits assumed): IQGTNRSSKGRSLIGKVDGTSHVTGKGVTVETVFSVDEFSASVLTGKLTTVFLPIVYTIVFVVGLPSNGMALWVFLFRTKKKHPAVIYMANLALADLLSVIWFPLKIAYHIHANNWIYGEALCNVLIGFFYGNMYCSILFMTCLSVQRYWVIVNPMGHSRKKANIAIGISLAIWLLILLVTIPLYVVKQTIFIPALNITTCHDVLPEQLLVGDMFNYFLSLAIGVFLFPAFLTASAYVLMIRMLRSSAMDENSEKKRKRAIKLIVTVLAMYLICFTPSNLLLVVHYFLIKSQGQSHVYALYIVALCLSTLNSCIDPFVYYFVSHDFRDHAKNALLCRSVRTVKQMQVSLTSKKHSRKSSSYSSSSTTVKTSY

Bmax [1]: 6550 MSD Unit
EC50 [1]: 9.72 nM
Bmax [2]: 13300 MSD Unit
EC50 [2]: 5.76 nM
binding result [3]: no binding
binding result [4]: no binding
binding result [5]: no binding
binding result [6]: no binding
binding result [7]: no binding
Kd [8]: 3.56 nM
T1/2 [8]: 3 min
binding result [9]: no binding
Kd [10]: 1.52 nM
T1/2 [10]: 3 min
binding result [11]: no binding
Kd [12]: 1.28 nM
T1/2 [12]: 7 min
Kd [13]: 2.94 nM
T1/2 [13]: 2 min
Kd [14]: 1.84 nM
T1/2 [14]: 2 min
B1: H4H590N (antibody, human IgG4, V domains shown)
VH: EVQLVESGGGLVQPGRSLRLSCAASGFTFDDYAMHWVRQAPGKGLEWVSGITWNSGTMAYADSVKGRFTISRDNAKNSLYLQMNSLRAEDTALYYCAKENWAFDYWGQGTLVTVSS
VL: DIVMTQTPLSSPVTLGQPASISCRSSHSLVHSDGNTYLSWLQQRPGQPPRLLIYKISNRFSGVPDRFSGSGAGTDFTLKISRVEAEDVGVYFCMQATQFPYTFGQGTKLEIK
notes: cloned onto human IgG4; also called H1M590N variable regions
